According to patent US20180071818, “A PROCESS FOR THE PREPARATION OF BIO-ORGANIC COATED GOLD AND SILVER NANOPARTICLES USING BLUE LIGHT” (Council of Scientific & Industrial Research, published 2018):

Biological target: Gelsolin (full-length) (Homo sapiens, UniProt P06396 P06396:28-782)
Assay: ELONA; aptamer-Ag nanoparticles coated directly, gelsolin 2 ug/well, anti-gelsolin detection; room temperature
Settings: tags: Sigma; His tag inferred from capture by anti-His antibody; label: silver nanoparticle
Method: In case of aptamer based Ag nanoparticles formation, reaction mixture was prepared by adding 18 μl of Aptamer 10.10R (SEQ ID No. 8) (4.86 μg/μl or 18 pmoles/μl) in each 0.2 ml of reaction volume of buffer (25 mM tris pH 8, 150 mM NaCl, 5 mM MgCl₂, 10 mM KCl, 0.01% tween and 2 mM CaCl₂) with 7.2 μl of AgNO₃ of 5 mM stock solution to form Ag nanoparticles. The final molar ratio of silver ions to aptamer 10.10R was kept constant at […]. Treated the ELISA plate with 1 μg/well streptavidin (1 mg/ml) and incubated the plate overnight at 4° C. For aptamer based Ag nanoparticles coating streptavidin was not used. The wells were blocked with 3% bovine serum albumin (BSA) in PBS and kept at room temperature for 2 hours to saturate excess binding sites. The wells were then washed three times with PBST and further added with 5, 10 and 20 μl of aptamer only and aptamer Ag nanoparticles (18 pmoles/μl), making aptamer working concentration of […]. All the coatings were performed in duplicates for two conditions one with and one without gelsolin in next step. […] The absorbance was measured with a multiskan ELISA reader at 450 nm.
It was observed that the coated aptamer or aptamer_Ag nanoparticles were captured by gelsolin which was further detected using anti-gelsolin antibody using an indirect ELISA based method (FIG. 4C). […]

Sequence of Gelsolin (full-length) (P06396 28-782, one chain of several): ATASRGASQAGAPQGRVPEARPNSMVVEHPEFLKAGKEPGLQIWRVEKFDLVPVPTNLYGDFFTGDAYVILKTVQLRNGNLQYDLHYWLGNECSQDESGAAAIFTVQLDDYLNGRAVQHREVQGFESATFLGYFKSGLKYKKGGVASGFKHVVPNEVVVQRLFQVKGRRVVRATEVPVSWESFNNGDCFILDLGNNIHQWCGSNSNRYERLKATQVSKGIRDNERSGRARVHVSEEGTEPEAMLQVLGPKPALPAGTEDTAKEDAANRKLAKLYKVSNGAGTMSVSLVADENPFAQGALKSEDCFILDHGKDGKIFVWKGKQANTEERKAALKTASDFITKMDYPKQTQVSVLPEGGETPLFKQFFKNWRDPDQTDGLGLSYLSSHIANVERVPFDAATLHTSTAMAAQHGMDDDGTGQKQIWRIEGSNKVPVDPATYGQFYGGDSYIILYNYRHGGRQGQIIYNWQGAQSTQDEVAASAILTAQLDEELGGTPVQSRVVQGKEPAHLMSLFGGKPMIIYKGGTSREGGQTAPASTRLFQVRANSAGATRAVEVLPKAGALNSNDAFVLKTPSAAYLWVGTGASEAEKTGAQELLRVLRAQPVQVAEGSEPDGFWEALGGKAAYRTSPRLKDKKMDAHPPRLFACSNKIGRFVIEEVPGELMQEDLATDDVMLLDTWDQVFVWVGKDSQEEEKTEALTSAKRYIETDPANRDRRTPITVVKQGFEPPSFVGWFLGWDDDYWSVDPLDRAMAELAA

B1: Aptamer 10.10R coated on Ag nanoparticles (ssDNA)
DNA: TCAAGTGGTCATGTACTAGTCAAGCACTTTCGCTGCTCGCTGGCGCCGCGCCCATCATATGTCCTTCTCTTCCCTA
**Q.** B1 was tested. Which binding signal did it give?
**A.** 3 fold vs aptamer only
